Reference: patent publication US5882644A, “Monoclonal antibodies specific for the platelet derived growth factor β receptor and methods of use thereof” (Protein Design Labs, Inc., priority 1996, dated 1999)
“Also recorded” adds a separate entry of the source.

Key:
[1] = tested on: human primary fibroblast cell line AG1523B; assay: Inhibition of PDGF BB-stimulated proliferation of AG1523B fibroblasts; type: cell-based; conditions: 300 ng/ml PDGF BB
[2] = tested on: PDGF-R β deletion fusion proteins; assay: ELISA epitope mapping with PDGF-R β deletion fusion proteins; type: binding, human
Text: To localize the binding sites of the M4TS antibodies on the PDGF-R, a series of PDGF-R β deletion mutants, each consisting of one or more adjacent domains of the extracellular portion of the receptor, was constructed by standard methods including PCR. The deletion constructs were each cloned into an expression plasmid (FIG. 13A) where they were fused to the constant region of the human lambda-1 immunoglobulin light chain, to facilitate detection in ELISA. The constructs were as follows (see FIG. 13B):
These PDGF-R β deletion fusion proteins were transiently expressed, by transfecting 10 μg of the respective expression plasmids into approximately 10^7 S194 mouse myeloma cells (ATCC TIB 19) using the DEAE-dextran method in accordance with the method described by Queen et al. (1984) Mol. Cell. Biol. 4:1042. After the transfected cells had died (4-5 days) and been removed by centrifugation, the culture supernatants containing the PDGF-R β deletion proteins were used in ELISA assays, 100 μl/well. First, the relative levels of the various PDGF-R β deletion proteins were measured in an ELISA where the plate was coated with goat anti-human lambda antibody (Tago) and the proteins detected with HRP-conjugated goat anti-human lambda antibody. […] To determine the ability of the antibodies to bind to each deletion protein, an ELISA was performed in which goat anti-human lambda antibody was used to coat the plate, followed by the cell supernatant and then 0.1 μg of the appropriate antibody, and then bound antibody detected with HRP-conjugated goat-anti-mouse Ig or goat-anti-human Ig antibody as appropriate (Tago). As a positive control, purified soluble PDGF-R β (Example 1) was coated directly on certain wells of the plate (denoted D1-5 in FIG. 14).

[3] = tested on: PDGF-R β; assay: Competitive binding with 125I-PDGF BB on transfectant cells expressing PDGF-R β; parameters: species or system human; conditions: 4° C.
Procedure: To determine the ability of muM4TS.11 and muM4TS.22 to block binding of PDGF BB to PDGF-R β, the following competitive binding experiments were performed. Transfectant cells expressing PDGF-R β were harvested, washed twice with cold DMEM, and resuspended at 10^6 cells/ml in DMEM. The assay was carried out in triplicate by incubating 100 μl of the cell suspension with either: 1) no antibody (to determine total binding); 2) varying concentrations of antibody; or 3) 100 ng cold PDGF BB (to saturate specific binding sites and determine non-specific binding) for 15 minutes at 4° C. Each sample received 1.0 ng ^125 I-labeled PDGF BB, and was incubated for an additional 60 min at 4° C. Unbound ^125 I-labeled PDGF BB was separated from that bound to the cell by layering the sample over a mixture of 80% dibutylphthalate, 20% olive oil in a microfuge tube, and microfuging briefly to pellet the cells through the oil mixture. The tubes were placed in dry ice to freeze the contents, the tip of the tube containing the cell pellet was cut off into a vial, and radioactivity was determined in a gamma counter.
To assess the ability of HuM4TS.22 to block the binding of PDGF BB to its receptor, competitive binding experiments of HuM4TS.22 with ^125 I-PDGF BB were performed according to the method described in Example 3.
To assess the ability of muM4TS.11 and HuM4TS.11 to block the binding of PDGF BB to the PDGF β receptor, competitive binding experiments of these antibodies with ^125 I-PDGF BB were performed according to the method described in Example 3.

[4] = tested on: PDGF-R β; assay: Competition with 125I-labeled murine antibody tracer on Sp2/0 PDGF-R β transfectant cells; type: binding, human; conditions: calculated from competitive binding data; Sp2/0 PDGF-R β transfectants
Procedure: To assess the ability of HuM4TS.22 to compete with muM4TS.22 for receptor binding, increasing concentrations of the two antibodies were respectively incubated on ice for one hour with Sp2/0 PDGF-R β transfectant cells and a fixed amount of tracer ^125 I-labeled muAb. The sample tubes were processed as in the blocking experiment just described.
To assess the ability of HuM4TS.11 to compete with the muAb for receptor binding, increasing concentrations of the two antibodies were respectively incubated on ice for one hour with Sp2/0 PDGF-R β transfectant cells and a fixed amount of tracer ^125 I-labeled M4TS.11. The sample tubes were processed as in the blocking experiment described. […] The binding affinities calculated from the data were: Ka =5×10^8 M^-1 for the muAb and 3×10^7 M^-1 for the HuAb.

[5] = tested on: PDGF-R β expressed on the cell membrane; assay: Flow cytometry binding to CHO PDGF-R β transfectant cells; parameters: species or system human; conditions: 0.1-1 μg/ml antibody; CHO PDGF-R β transfectants vs untransfected CHO
Procedure: The cells were washed once in cold PBS and resuspended in 50 μl of PBS containing 10 μg/ml FITC-conjugated goat anti-mouse IgG and incubated for 30 min. After another wash, the cells were fixed by resuspension in 0.25 ml of paraformaldehyde in PBS, and analyzed for fluorescence by flow cytometry on a FACScan (Becton Dickinson).

[6] = Pharmacokinetics in rats (plasma antibody by ELISA); type: in vivo, rat
Procedure: In preliminary experiments to determine the pharmacokinetics of muM4TS.11 in rats, an initial dose of antibody was injected and blood samples obtained at 1, 2, 3, 6, 12, 24, 36, and 48 hr. Antibody levels in plasma were measured by ELISA. The half-life of the antibody in rats was approximately 1 day. […] (In humans, proportionally smaller and less frequent doses are likely to be sufficient for a humanized anti-PDGF-R β antibody such as HuM4TS.11 or HuM4TS.22 to be effective, because of the expected longer half-life in humans and higher affinity for human PDGF-R β of these non-immunogenic HuAbs).

[7] = tested on: Rat aortic smooth muscle cells (SMC); assay: Inhibition of PDGF BB-mediated proliferation of rat aortic smooth muscle cells; type: cell-based; conditions: PDGF BB 10 ng/ml, 3H-thymidine 19 to 26 hr
Procedure: To determine whether muM4TS.11 inhibits PDGF-mediated proliferation of rat cells in vitro, the following experiment was performed. Rat aortic smooth muscle cells (SMC) were plated at a 1:3 split ratio in 10% FCS and made quiescent 24 hours later by changing the medium to 1% control process serum replacement II (Sigma, St. Louis, Mo.). Three to five days later, the cells were stimulated with PDGF BB (10 ng/ml). At the time of stimulation, increasing doses of the specific MAb or mouse IgG (control) were added. Cell proliferation was determined by measuring ^3 H-thymidine incorporated into DNA when the cells were pulsed from 19 to 26 hr after stimulation. MuM4TS.11 inhibited proliferation in a concentration-dependent manner with an IC50 of about 0.5 μg/ml.

B1: muM4TS.11: murine monoclonal antibody to PDGF-R β, variable regions SEQ ID NOS:10 and 12; epitope in fourth extracellular domain (antibody, V domains shown)
VL: METETLLLWVLLLWVPGSTGDIVLTQSPPSLAVSLGQRATISCRASESVDSYGNSFMHWYQQKPGQPPKLLIYRASNLESGIPARFSGGGSRTDFTLTINPVEADDVATYYCQQSNEDPPTFGGGTKLEIK
VH: MERHWIFLFLFSVTAGVHSQVQLQQSGAEVAKPGASVKMSCKASGYTFTNCWMHWVKQRPGQGLEWIGYINPTTGYSEYNQNFKDKATLTADKSSNTAYIQLSSLTSEDSAVYYCTSNYGHYDWFANWGQGTLVT
For B1, the “inhibition of stimulation of proliferation by PDGF BB” value [1] was “effectively inhibited the stimulation of proliferation by PDGF BB”, the “binding to deletion proteins containing only first through third domains” value ([2]; 0.1 μg antibody) was “do not bind” and the “binding to protein D1-4” value ([2]; 0.1 μg antibody) was “do bind to protein D1-4”. For the same molecule, the “binding to protein D5 (fifth domain only)” value ([2]; separate experiment) was “none of muM4TS.11 and HuM4TS.11, muM4TS.22 and HuM4TS.22 bound to it”, the “blocking of 125I-PDGF BB binding to PDGF-R β” value [3] was “did not; also recorded: neither muM4TS.11 nor HuM4TS.11 were able to inhibit binding of PDGF BB to its receptor” and the “binding affinity Ka” value [4] was 5e+08 M⁻¹. For the same molecule, the “specific binding to membrane PDGF-R β by flow cytometry” value [5] was “specifically bound to CHO PDGF-R β transfectant cells but not to untransfected CHO cells”, the “time antibody level stays above the in vitro inhibitory concentration” value ([6]; 4 mg bolus, then 2 mg IV every 24 hr for 4 days) was “at least 7 days” and the “half-life of the antibody” value ([6]; preliminary experiments, plasma) was “approximately 1 day”. For the same molecule, the “IC50 of inhibition of proliferation” value [7] was “about 0.5 μg/ml”.
